Test results taken from article PMC8541144, “Synthesis, Characterization and In Vitro Evaluation of Hybrid Monomeric Peptides Suited for Multimodal Imaging by PET/OI: Extending the Concept of Charge—Cell Binding Correlation” (Pharmaceuticals, 2021).
Like-named read-outs stand apart in the source and are kept apart here.

Columns and labels:
[1] = LogD determination: partition between 1-octanol and phosphate buffer pH 7.4
Procedure: In the following, the lipophilicity of the labeled conjugates was investigated to get a first idea of the potential excretion pathway of the agents during an in vivo application. The logD values were determined by partition experiments between n-octanol and aqueous solution at pH 7.4.
The mixtures were intensively shaken for 5 min on a vibrating plate. After subsequent centrifugation at 13,000 rpm for 5 min, 125 µL were taken from each phase and measured in a γ-counter. The logD values were calculated from three or four independent experiments, each performed in triplicate.

[2] = Photophysical properties (absorbance and emission measurements); assay type: physicochemical; conditions: PBS, 1 × 10^−5 mol × L^−1
Procedure: Following the synthesis of the target compounds, their photophysical properties were determined. Here, a possible negative influence of the conjugation of the different MIUs to the corresponding peptidic structures on the absorbance coefficients, or the absorption or emission wavelengths should be ruled out. In Table 2, the results of these evaluations are reported for the MIU-peptide-bioconjugates 7 a-c, 8 a-c and 9 a-c as well as for the MIUs 7-9. As expected, no significant loss or shift of fluorescence properties of the final compounds compared to their imaging units before conjugation was observed. This is in line with the earlier observation for PESIN homodimer-MIU-conjugates where an influence of dye or MIU bioconjugation on fluorescence quantum yields and other photophysical properties could be ruled out.
For HPLC chromatography, a Dionex UltiMate 3000 system was used together with Chromeleon Software (Version 6.80). For semipreparative analyses, a Chromolith (RP-18e, 100–10 mm, Merck, Germany) column was used. For radioanalytical use, a Dionex UltiMate 3000 system equipped with a Raytest GABI Star radioactivity detector was used together with a Chromolith Performance (RP-18e, 100–4.6 mm, Merck, Germany) column. All operations were performed with a flow rate of 4 mL/min using H2O + 0.1% TFA and MeCN + 0.1% TFA as solvents. HR-ESI (high-resolution Electrospray Ionization) and MALDI (Matrix-Assisted Laser Desorption/Ionization) spectra were obtained with Finnigan MAT95Q and Bruker Daltronics Microflex spectrometers, respectively. γ-counting was performed using a 2480 Wizard gamma counter system from Perkin Elmer (Rodgau, Germany). For absorbance and emission measurements, a Tecan Infinite M200 Microplate reader together with a Nunc Micro-Well 96 solid plate from ThermoFisher (Dreieich, Germany) was used. Confocal fluorescence microscopy was performed on a Leica TCS SP8 confocal microscope with lasers at λ = 405, 488, 552 and 638 nm. Overlays of microscopies were generated directly with the operating software or afterwards using FIJI software (V1.50e).

[3] = parameters: method as in PMID 32618007, PMID 32948032; conditions: MIUs; mean ± SD; ref [20],[21]; cited from earlier work
[4] = parameters: method as in PMID 32618007, PMID 32948032; conditions: ref [20],[21], cited from earlier work

SMILES: CSCC[C@H](NC(=O)[C@H](CC(C)C)NC(=O)[C@H](Cc1c[nH]cn1)NC(=O)CNC(=O)[C@@H](NC(=O)[C@H](C)NC(=O)[C@H](Cc1c[nH]c2ccccc12)NC(=O)[C@H](CCC(N)=O)NC(=O)CCOCCOCCOCCOCCNC(=O)CCCN1C(=O)CC(SC[C@H](NC(=O)[C@H](CCCC[n+]2c(C)cc(/C=C/c3ccc(N(C)C)cc3)cc2C)NC(=O)CC[C@H](C(=O)O)N2CCN(CC(=O)O)CCN(CC(=O)O)CC2)C(N)=O)C1=O)C(C)C)C(N)=O (stereo partly drawn) [7 a, BBN7-14-pyrylium-NODA-GA]
- logD [1]: -2.38 ± 0.02

SMILES: CCCC[C@H](NC(=O)CCOCCOCCOCCOCCNC(=O)CCCN1C(=O)CC(SC[C@H](NC(=O)[C@H](CCCC[n+]2c(C)cc(/C=C/c3ccc(N(C)C)cc3)cc2C)NC(=O)CC[C@H](C(=O)O)N2CCN(CC(=O)O)CCN(CC(=O)O)CC2)C(N)=O)C1=O)C(=O)N[C@H]1CC(=O)NCCCC[C@@H](C(N)=O)NC(=O)[C@H](Cc2c[nH]c3ccccc23)NC(=O)[C@H](CCCNC(=N)N)NC(=O)[C@@H](Cc2ccccc2)NC(=O)[C@H](Cc2c[nH]cn2)NC1=O (stereo partly drawn) [7 b, Nle-c(DHfRWK)-pyrylium-NODA-GA]
- logD [1]: -2.03 ± 0.06

SMILES: Cc1cc(/C=C/c2ccc(N(C)C)cc2)cc(C)[n+]1CCCC[C@H](NC(=O)CC[C@H](C(=O)O)N1CCN(CC(=O)O)CCN(CC(=O)O)CC1)C(=O)N[C@@H](CSC1CC(=O)N(CCCC(=O)NCCOCCOCCOCCOCCC(=O)NCCCC[C@@H]2NC(=O)[C@@H](Cc3ccccc3)NC(=O)[C@H](CC(=O)O)NC(=O)CNC(=O)[C@H](CCCNC(=N)N)NC2=O)C1=O)C(N)=O (stereo partly drawn) [7 c, c(RGDfK)-pyrylium-NODA-GA]
- logD [1]: -2.51 ± 0.09

SMILES: CSCC[C@H](NC(=O)[C@H](CC(C)C)NC(=O)[C@H](Cc1c[nH]cn1)NC(=O)CNC(=O)[C@@H](NC(=O)[C@H](C)NC(=O)[C@H](Cc1c[nH]c2ccccc12)NC(=O)[C@H](CCC(N)=O)NC(=O)CCOCCOCCOCCOCCNC(=O)CCCN1C(=O)CC(SC[C@H](NC(=O)[C@H](CCCCNS(=O)(=O)c2cccc3c(N(C)C)cccc23)NC(=O)CC[C@H](C(=O)O)N2CCN(CC(=O)O)CCN(CC(=O)O)CC2)C(N)=O)C1=O)C(C)C)C(N)=O (stereo partly drawn) [8 a, BBN7-14-dansyl-NODA-GA]
- logD [1]: -1.44 ± 0.01

SMILES: CCCC[C@H](NC(=O)CCOCCOCCOCCOCCNC(=O)CCCN1C(=O)CC(SC[C@H](NC(=O)[C@H](CCCCNS(=O)(=O)c2cccc3c(N(C)C)cccc23)NC(=O)CC[C@H](C(=O)O)N2CCN(CC(=O)O)CCN(CC(=O)O)CC2)C(N)=O)C1=O)C(=O)N[C@H]1CC(=O)NCCCC[C@@H](C(N)=O)NC(=O)[C@H](Cc2c[nH]c3ccccc23)NC(=O)[C@H](CCCNC(=N)N)NC(=O)[C@@H](Cc2ccccc2)NC(=O)[C@H](Cc2c[nH]cn2)NC1=O (stereo partly drawn) [8 b, Nle-c(DHfRWK)-dansyl-NODA-GA]
- logD [1]: -1.66 ± 0.03

SMILES: CN(C)c1cccc2c(S(=O)(=O)NCCCC[C@H](NC(=O)CC[C@H](C(=O)O)N3CCN(CC(=O)O)CCN(CC(=O)O)CC3)C(=O)N[C@@H](CSC3CC(=O)N(CCCC(=O)NCCOCCOCCOCCOCCC(=O)NCCCC[C@@H]4NC(=O)[C@@H](Cc5ccccc5)NC(=O)[C@H](CC(=O)O)NC(=O)CNC(=O)[C@H](CCCNC(=N)N)NC4=O)C3=O)C(N)=O)cccc12 (stereo partly drawn) [8 c, c(RGDfK)-dansyl-NODA-GA]
- logD [1]: -2.17 ± 0.14

SMILES: CSCC[C@H](NC(=O)[C@H](CC(C)C)NC(=O)[C@H](Cc1c[nH]cn1)NC(=O)CNC(=O)[C@@H](NC(=O)[C@H](C)NC(=O)[C@H](Cc1c[nH]c2ccccc12)NC(=O)[C@H](CCC(N)=O)NC(=O)CCOCCOCCOCCOCCNC(=O)CCCN1C(=O)CC(SC[C@H](NC(=O)[C@H](CCCCNC(=O)c2ccc(C3=C(/C=C/C4=[N+](CCCCS(=O)(=O)[O-])c5ccc6ccccc6c5C4(C)C)CCC/C3=C\C=C3\N(CCCCS(=O)(=O)O)c4ccc5ccccc5c4C3(C)C)cc2)NC(=O)CC[C@H](C(=O)O)N2CCN(CC(=O)O)CCN(CC(=O)O)CC2)C(N)=O)C1=O)C(C)C)C(N)=O (stereo partly drawn) [9 a, BBN7-14-cyanine-NODA-GA]
- λmax(abs) [2]: 724/800
- Stokes Shift ([2]; λex = 650 nm): 9 nm
- λmax(em) ([2]; λex = 650 nm): 809 nm
- logD [1]: -1.45 ± 0.06

SMILES: CCCC[C@H](NC(=O)CCOCCOCCOCCOCCNC(=O)CCCN1C(=O)CC(SC[C@H](NC(=O)[C@H](CCCCNC(=O)c2ccc(C3=C(/C=C/C4=[N+](CCCCS(=O)(=O)O)c5ccc6ccccc6c5C4(C)C)CCC/C3=C\C=C3\N(CCCCS(=O)(=O)[O-])c4ccc5ccccc5c4C3(C)C)cc2)NC(=O)CC[C@H](C(=O)O)N2CCN(CC(=O)O)CCN(CC(=O)O)CC2)C(N)=O)C1=O)C(=O)N[C@H]1CC(=O)NCCCC[C@@H](C(N)=O)NC(=O)[C@H](Cc2c[nH]c3ccccc23)NC(=O)[C@H](CCCNC(=N)N)NC(=O)[C@@H](Cc2ccccc2)NC(=O)[C@H](Cc2c[nH]cn2)NC1=O (stereo partly drawn) [9 b, Nle-c(DHfRWK)-cyanine-NODA-GA]
- logD [1]: -1.42 ± 0.13

SMILES: CC1(C)C(/C=C/C2=C(c3ccc(C(=O)NCCCC[C@H](NC(=O)CC[C@H](C(=O)O)N4CCN(CC(=O)O)CCN(CC(=O)O)CC4)C(=O)N[C@@H](CSC4CC(=O)N(CCCC(=O)NCCOCCOCCOCCOCCC(=O)NCCCC[C@@H]5NC(=O)[C@@H](Cc6ccccc6)NC(=O)[C@H](CC(=O)O)NC(=O)CNC(=O)[C@H](CCCNC(=N)N)NC5=O)C4=O)C(N)=O)cc3)C(=C/C=C3/N(CCCCS(=O)(=O)[O-])c4ccc5ccccc5c4C3(C)C)/CCC2)=[N+](CCCCS(=O)(=O)O)c2ccc3ccccc3c21 (stereo partly drawn) [9 c, c(RGDfK)-cyanine-NODA-GA]
- logD [1]: -1.97 ± 0.18

SMILES: N=C(N)NCCC[C@@H]1NC(=O)[C@H](CCCCNC(=O)CCOCCOCCOCCOCCNC(=O)CCCN2C(=O)CC(SC[C@H](NC(=O)CNC(=O)CC[C@H](C(=O)O)N3CCN(CC(=O)O)CCN(CC(=O)O)CC3)C(N)=O)C2=O)NC(=O)[C@@H](Cc2ccccc2)NC(=O)[C@H](CC(=O)O)NC(=O)CNC1=O (stereo partly drawn) [10 c, c(RGDfK)-NODA-GA]
- logD [1]: -4.06 ± 0.1

SMILES: Cc1cc(/C=C/c2ccc(N(C)C)cc2)cc(C)[n+]1CCCC[C@H](NC(=O)CC[C@H](C(=O)O)N1CCN(CC(=O)O)CCN(CC(=O)O)CC1)C(=O)N[C@@H](CS)C(N)=O [Compound 7]
- logD [3]: −2.04 ± 0.11
- Stokes Shift ([4]; MIU, λex = 400 nm): 160 nm
- log ε ([4]; MIUs): 4.16 M^−1cm^−1
- λmax(abs) ([4]; MIUs): 440 nm
- λmax(em) ([4]; MIUs, λex = 400 nm): 600 nm

SMILES: CN(C)c1cccc2c(S(=O)(=O)NCCCC[C@H](NC(=O)CC[C@H](C(=O)O)N3CCN(CC(=O)O)CCN(CC(=O)O)CC3)C(=O)N[C@@H](CS)C(N)=O)cccc12 [Compound 8, thio-dansyl-NODA-GA]
- logD [3]: −1.39 ± 0.04
- λmax(em) ([4]; MIUs, λex = 400 nm): 550 nm

SMILES: CC1(C)C(/C=C/C2=C(c3ccc(C(=O)NCCCC[C@H](NC(=O)CC[C@H](C(=O)O)N4CCN(CC(=O)O)CCN(CC(=O)O)CC4)C(=O)N[C@@H](CS)C(N)=O)cc3)C(=C/C=C3/N(CCCCS(=O)(=O)[O-])c4ccc5ccccc5c4C3(C)C)/CCC2)=[N+](CCCCS(=O)(=O)O)c2ccc3ccccc3c21 [Compound 9, thio-cyanine-NODA-GA]
- logD [3]: −1.29 ± 0.11
- Stokes Shift ([4]; MIU, λex = 650 nm): 10 nm
- λmax(em) ([4]; MIU, λex = 650 nm): 800 nm
- λmax(abs) ([4]; MIUs): 720/790

SMILES: NC(=O)[C@H](CS)NC(=O)CNC(=O)CC[C@H](C(=O)O)N1CCN(CC(=O)O)CCN(CC(=O)O)CC1 [Compound 10, thio-NODA-GA]
- logD [3]: −3.35 ± 0.15

SMILES: CSCC[C@H](NC(=O)[C@H](CC(C)C)NC(=O)[C@H](Cc1c[nH]cn1)NC(=O)CNC(=O)[C@@H](NC(=O)[C@H](C)NC(=O)[C@H](Cc1c[nH]c2ccccc12)NC(=O)[C@H](CCC(N)=O)NC(=O)CCOCCOCCOCCOCCNC(=O)CCCN1C(=O)CC(SC[C@H](NC(=O)CNC(=O)CC[C@H](C(=O)O)N2CCN(CC(=O)O)CCN(CC(=O)O)CC2)C(N)=O)C1=O)C(C)C)C(N)=O (stereo partly drawn) [[^68Ga]Ga-10 a, metal not drawn]
- logD [1]: -3.78 ± 0.04

SMILES: CCCC[C@H](NC(=O)CCOCCOCCOCCOCCNC(=O)CCCN1C(=O)CC(SC[C@H](NC(=O)CNC(=O)CC[C@H](C(=O)O)N2CCN(CC(=O)O)CCN(CC(=O)O)CC2)C(N)=O)C1=O)C(=O)N[C@H]1CC(=O)NCCCC[C@@H](C(N)=O)NC(=O)[C@H](Cc2c[nH]c3ccccc23)NC(=O)[C@H](CCCNC(=N)N)NC(=O)[C@@H](Cc2ccccc2)NC(=O)[C@H](Cc2c[nH]cn2)NC1=O (stereo partly drawn) [[^68Ga]Ga-10 b, metal not drawn]
- logD [1]: -3.36 ± 0.02
